Experimental data from article PMC9352680, “A comprehensive thermodynamic model for RNA binding by the Saccharomyces cerevisiae Pumilio protein PUF4”.

T1: PUF4 RNA-binding domain (Saccharomyces cerevisiae, UniProt P25339 537-888)
T1 sequence: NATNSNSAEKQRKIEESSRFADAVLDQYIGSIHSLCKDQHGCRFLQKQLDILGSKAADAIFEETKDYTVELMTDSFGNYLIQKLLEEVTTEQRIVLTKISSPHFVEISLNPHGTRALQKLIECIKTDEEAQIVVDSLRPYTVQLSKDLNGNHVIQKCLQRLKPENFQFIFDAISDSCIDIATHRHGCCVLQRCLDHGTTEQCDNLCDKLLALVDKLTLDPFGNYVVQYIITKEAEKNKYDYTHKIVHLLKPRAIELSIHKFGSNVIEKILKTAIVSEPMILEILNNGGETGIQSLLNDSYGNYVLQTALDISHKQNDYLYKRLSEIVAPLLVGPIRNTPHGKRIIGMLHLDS


Molecular target: T1, PUF4 RNA-binding domain
Assay: Mg; RNA-MaP; 20 mM Na-HEPES pH 7.4, 30 mM KOAc, 0.75 mM MgCl2, 0.1% Tween-20, 5% glycerol, 0.1 mg/mL BSA, 2 mM DTT; 25 C; 0.0125-409.6 nM protein
Conditions: tags: N-His6-TEV cleaved; C-SNAP kept, Cy3B-labelled; label: tethered on chip by stalled RNA polymerase

Binder | Kd [nM]
UCUCUUUGUACUAUUUUCUCUU (ssRNA) [Ib_S1_P5E.1_K5.1_C5.1_H5.1_A5.1_[T5C]_F5.1_[A10T]_T5.1] | 10.2
ACAAACAUACACUAUACUACAAAC (ssRNA) [Id_ii_S3_P3E.4_K3.3_C3.2_[C-2A]_H3.3_A3.1_F3.1_T3.2_[T9C]_[A10T]] | 1070
ACAAACCGACACUAUAUAACAAAC (ssRNA) [Id_ii_S3_P3E.4_K3.3_C3.2_[T-1G]_H3.3_A3.1_F3.1_T3.2] | > 2300
ACAAACGAACACUAUAAUACAAAC (ssRNA) [Id_ii_S3_P3E.4_K3.3_C3.2_[C-2G]_[T-1A]_H3.3_A3.1_F3.1_T3.2_[T9A]_[A10T]] | > 2300
ACAAACUGACACUAUAAGACAAAC (ssRNA) [Id_ii_S3_P3E.4_K3.3_C3.2_[C-2T]_[T-1G]_H3.3_A3.1_F3.1_T3.2_[T9A]_[A10G]] | > 2300
ACAAACUAACACUAUAUAACAAAC (ssRNA) [Id_ii_S3_P3E.4_K3.3_C3.2_[C-2T]_[T-1A]_H3.3_A3.1_F3.1_T3.2] | > 2300
UCUCUUUGUAGUAUUUUCUCUU (ssRNA) [Ib_S1_P5E.1_K5.1_C5.1_H5.1_A5.1_[T5G]_F5.1_[A10T]_T5.1] | 101
ACAAACCUACACUAUAGCACAAAC (ssRNA) [Id_ii_S3_P3E.4_K3.3_C3.2_H3.3_A3.1_F3.1_T3.2_[T9G]_[A10C]] | 2260
ACAAACUGACACUAUAUUACAAAC (ssRNA) [Id_ii_S3_P3E.4_K3.3_C3.2_[C-2T]_[T-1G]_H3.3_A3.1_F3.1_T3.2_[A10T]] | 1340
ACAAACAUACACUAUAUUACAAAC (ssRNA) [Id_ii_S3_P3E.4_K3.3_C3.2_[C-2A]_H3.3_A3.1_F3.1_T3.2_[A10T]] | 556
ACAAACGUACACUAUACCACAAAC (ssRNA) [Id_ii_S3_P3E.4_K3.3_C3.2_[C-2G]_H3.3_A3.1_F3.1_T3.2_[T9C]_[A10C]] | 105
ACAAACACACACUAUAUUACAAAC (ssRNA) [Id_ii_S3_P3E.4_K3.3_C3.2_[C-2A]_[T-1C]_H3.3_A3.1_F3.1_T3.2_[A10T]] | 1650
ACAAACGAACACUAUAGCACAAAC (ssRNA) [Id_ii_S3_P3E.4_K3.3_C3.2_[C-2G]_[T-1A]_H3.3_A3.1_F3.1_T3.2_[T9G]_[A10C]] | > 2300
ACAAACUUACACUAUAGCACAAAC (ssRNA) [Id_ii_S3_P3E.4_K3.3_C3.2_[C-2T]_H3.3_A3.1_F3.1_T3.2_[T9G]_[A10C]] | 2170
ACAAACCCACACUAUAUUACAAAC (ssRNA) [Id_ii_S3_P3E.4_K3.3_C3.2_[T-1C]_H3.3_A3.1_F3.1_T3.2_[A10T]] | 2120
ACAAACCUACACUAUACUACAAAC (ssRNA) [Id_ii_S3_P3E.4_K3.3_C3.2_H3.3_A3.1_F3.1_T3.2_[T9C]_[A10T]] | > 2300
ACAAACGCACACUAUAAUACAAAC (ssRNA) [Id_ii_S3_P3E.4_K3.3_C3.2_[C-2G]_[T-1C]_H3.3_A3.1_F3.1_T3.2_[T9A]_[A10T]] | > 2300
ACAAACUGACACUAUACCACAAAC (ssRNA) [Id_ii_S3_P3E.4_K3.3_C3.2_[C-2T]_[T-1G]_H3.3_A3.1_F3.1_T3.2_[T9C]_[A10C]] | > 2300
ACAAACUCACACUAUAUUACAAAC (ssRNA) [Id_ii_S3_P3E.4_K3.3_C3.2_[C-2T]_[T-1C]_H3.3_A3.1_F3.1_T3.2_[A10T]] | 2080
ACAAACAUACACUAUAGAACAAAC (ssRNA) [Id_ii_S3_P3E.4_K3.3_C3.2_[C-2A]_H3.3_A3.1_F3.1_T3.2_[T9G]] | 1310
ACAAACUUACACUAUAAAACAAAC (ssRNA) [Id_ii_S3_P3E.4_K3.3_C3.2_[C-2T]_H3.3_A3.1_F3.1_T3.2_[T9A]] | > 2300

Binder | Kd [nM]
ACAAACCUACACUAUACAACAAAC (ssRNA) [Id_ii_S3_P3E.4_K3.3_C3.2_H3.3_A3.1_F3.1_T3.2_[T9C]] | 1880
ACAAACCUACACUAUAUGACAAAC (ssRNA) [Id_ii_S3_P3E.4_K3.3_C3.2_H3.3_A3.1_F3.1_T3.2_[A10G]] | > 2300
ACAAACUCACACUAUAGCACAAAC (ssRNA) [Id_ii_S3_P3E.4_K3.3_C3.2_[C-2T]_[T-1C]_H3.3_A3.1_F3.1_T3.2_[T9G]_[A10C]] | > 2300
ACAAACAUACACUAUAUCACAAAC (ssRNA) [Id_ii_S3_P3E.4_K3.3_C3.2_[C-2A]_H3.3_A3.1_F3.1_T3.2_[A10C]] | 1230
ACAAACUAACACUAUAUUACAAAC (ssRNA) [Id_ii_S3_P3E.4_K3.3_C3.2_[C-2T]_[T-1A]_H3.3_A3.1_F3.1_T3.2_[A10T]] | 2240
ACAAACGGACACUAUACUACAAAC (ssRNA) [Id_ii_S3_P3E.4_K3.3_C3.2_[C-2G]_[T-1G]_H3.3_A3.1_F3.1_T3.2_[T9C]_[A10T]] | 2160
UCUCUUUGUAAUAUUUUCUCUU (ssRNA) [Ib_S1_P5E.1_K5.1_C5.1_H5.1_A5.1_[T5A]_F5.1_[A10T]_T5.1] | 15
ACAAACCCACACUAUACGACAAAC (ssRNA) [Id_ii_S3_P3E.4_K3.3_C3.2_[T-1C]_H3.3_A3.1_F3.1_T3.2_[T9C]_[A10G]] | > 2300
ACAAACCGACACUAUACUACAAAC (ssRNA) [Id_ii_S3_P3E.4_K3.3_C3.2_[T-1G]_H3.3_A3.1_F3.1_T3.2_[T9C]_[A10T]] | > 2300
ACAAACGAACACUAUACCACAAAC (ssRNA) [Id_ii_S3_P3E.4_K3.3_C3.2_[C-2G]_[T-1A]_H3.3_A3.1_F3.1_T3.2_[T9C]_[A10C]] | > 2300
ACAAACGGACACUAUAAAACAAAC (ssRNA) [Id_ii_S3_P3E.4_K3.3_C3.2_[C-2G]_[T-1G]_H3.3_A3.1_F3.1_T3.2_[T9A]] | > 2300
ACAAACCUACACUAUAAUACAAAC (ssRNA) [Id_ii_S3_P3E.4_K3.3_C3.2_H3.3_A3.1_F3.1_T3.2_[T9A]_[A10T]] | > 2300
ACAAACGAACACUAUAACACAAAC (ssRNA) [Id_ii_S3_P3E.4_K3.3_C3.2_[C-2G]_[T-1A]_H3.3_A3.1_F3.1_T3.2_[T9A]_[A10C]] | > 2300
ACAAACAAACACUAUAGGACAAAC (ssRNA) [Id_ii_S3_P3E.4_K3.3_C3.2_[C-2A]_[T-1A]_H3.3_A3.1_F3.1_T3.2_[T9G]_[A10G]] | > 2300
ACAAACGCACACUAUACAACAAAC (ssRNA) [Id_ii_S3_P3E.4_K3.3_C3.2_[C-2G]_[T-1C]_H3.3_A3.1_F3.1_T3.2_[T9C]] | > 2300
ACAAACAGACACUAUAUUACAAAC (ssRNA) [Id_ii_S3_P3E.4_K3.3_C3.2_[C-2A]_[T-1G]_H3.3_A3.1_F3.1_T3.2_[A10T]] | 2200
ACAAACCUACACUAUAAAACAAAC (ssRNA) [Id_ii_S3_P3E.4_K3.3_C3.2_H3.3_A3.1_F3.1_T3.2_[T9A]] | > 2300
ACAAACCGACACUAUACAACAAAC (ssRNA) [Id_ii_S3_P3E.4_K3.3_C3.2_[T-1G]_H3.3_A3.1_F3.1_T3.2_[T9C]] | > 2300
ACAAACGCACACUAUAGGACAAAC (ssRNA) [Id_ii_S3_P3E.4_K3.3_C3.2_[C-2G]_[T-1C]_H3.3_A3.1_F3.1_T3.2_[T9G]_[A10G]] | > 2300
ACAAACCCACACUAUAGCACAAAC (ssRNA) [Id_ii_S3_P3E.4_K3.3_C3.2_[T-1C]_H3.3_A3.1_F3.1_T3.2_[T9G]_[A10C]] | > 2300
ACAAACGUACACUAUAACACAAAC (ssRNA) [Id_ii_S3_P3E.4_K3.3_C3.2_[C-2G]_H3.3_A3.1_F3.1_T3.2_[T9A]_[A10C]] | 100

Binder | Kd [nM]
ACAAACUCACACUAUAGAACAAAC (ssRNA) [Id_ii_S3_P3E.4_K3.3_C3.2_[C-2T]_[T-1C]_H3.3_A3.1_F3.1_T3.2_[T9G]] | > 2300
ACAAACUGACACUAUAGAACAAAC (ssRNA) [Id_ii_S3_P3E.4_K3.3_C3.2_[C-2T]_[T-1G]_H3.3_A3.1_F3.1_T3.2_[T9G]] | 1880
ACAAACAUACACUAUACCACAAAC (ssRNA) [Id_ii_S3_P3E.4_K3.3_C3.2_[C-2A]_H3.3_A3.1_F3.1_T3.2_[T9C]_[A10C]] | 1760
ACAAACCUACACUAUAGAACAAAC (ssRNA) [Id_ii_S3_P3E.4_K3.3_C3.2_H3.3_A3.1_F3.1_T3.2_[T9G]] | > 2300
ACAAACAGACACUAUACAACAAAC (ssRNA) [Id_ii_S3_P3E.4_K3.3_C3.2_[C-2A]_[T-1G]_H3.3_A3.1_F3.1_T3.2_[T9C]] | > 2300
ACAAACGGACACUAUAUUACAAAC (ssRNA) [Id_ii_S3_P3E.4_K3.3_C3.2_[C-2G]_[T-1G]_H3.3_A3.1_F3.1_T3.2_[A10T]] | 1380
ACAAACGCACACUAUAAGACAAAC (ssRNA) [Id_ii_S3_P3E.4_K3.3_C3.2_[C-2G]_[T-1C]_H3.3_A3.1_F3.1_T3.2_[T9A]_[A10G]] | > 2300
ACAAACAUACACUAUAACACAAAC (ssRNA) [Id_ii_S3_P3E.4_K3.3_C3.2_[C-2A]_H3.3_A3.1_F3.1_T3.2_[T9A]_[A10C]] | 1680
ACAAACGAACACUAUAUCACAAAC (ssRNA) [Id_ii_S3_P3E.4_K3.3_C3.2_[C-2G]_[T-1A]_H3.3_A3.1_F3.1_T3.2_[A10C]] | > 2300
ACAAACACACACUAUAUCACAAAC (ssRNA) [Id_ii_S3_P3E.4_K3.3_C3.2_[C-2A]_[T-1C]_H3.3_A3.1_F3.1_T3.2_[A10C]] | > 2300
ACAAACGAACACUAUACAACAAAC (ssRNA) [Id_ii_S3_P3E.4_K3.3_C3.2_[C-2G]_[T-1A]_H3.3_A3.1_F3.1_T3.2_[T9C]] | > 2300
ACAAACACACACUAUAGCACAAAC (ssRNA) [Id_ii_S3_P3E.4_K3.3_C3.2_[C-2A]_[T-1C]_H3.3_A3.1_F3.1_T3.2_[T9G]_[A10C]] | > 2300
ACAAACCCACACUAUAAGACAAAC (ssRNA) [Id_ii_S3_P3E.4_K3.3_C3.2_[T-1C]_H3.3_A3.1_F3.1_T3.2_[T9A]_[A10G]] | > 2300
ACAAACGUACACUAUAUCACAAAC (ssRNA) [Id_ii_S3_P3E.4_K3.3_C3.2_[C-2G]_H3.3_A3.1_F3.1_T3.2_[A10C]] | 51
ACAAACUUACACUAUAUUACAAAC (ssRNA) [Id_ii_S3_P3E.4_K3.3_C3.2_[C-2T]_H3.3_A3.1_F3.1_T3.2_[A10T]] | 959
UCUCUUUGUAAUAUUCUCUCUU (ssRNA) [Ib_S1_P5E.1_K5.1_C5.1_H5.1_A5.1_[T5A]_F5.1_[A10C]_T5.1] | 21.6
ACAAACUUACACUAUAUAACAAAC (ssRNA) [Id_ii_S3_P3E.4_K3.3_C3.2_[C-2T]_H3.3_A3.1_F3.1_T3.2] | 968
ACAAACUGACACUAUACUACAAAC (ssRNA) [Id_ii_S3_P3E.4_K3.3_C3.2_[C-2T]_[T-1G]_H3.3_A3.1_F3.1_T3.2_[T9C]_[A10T]] | > 2300
ACAAACCGACACUAUAAAACAAAC (ssRNA) [Id_ii_S3_P3E.4_K3.3_C3.2_[T-1G]_H3.3_A3.1_F3.1_T3.2_[T9A]] | > 2300
UCUCUUUGUACUAUUCUCUCUU (ssRNA) [Ib_S1_P5E.1_K5.1_C5.1_H5.1_A5.1_[T5C]_F5.1_[A10C]_T5.1] | 12.5
ACAAACAAACACUAUACAACAAAC (ssRNA) [Id_ii_S3_P3E.4_K3.3_C3.2_[C-2A]_[T-1A]_H3.3_A3.1_F3.1_T3.2_[T9C]] | > 2300
